Data taken from patent publication US20230192896A1 (BIOVERATIV THERAPEUTICS, published 2023).

B1: BIIB-12-914 (antibody, V domains shown)
VH: QVQLVQSGAEVKKPGASVKVSCKASGYTFTSYYMHWVRQAPGQGLEWMGIINPSGGSTSYAQKFQGRVTMTRDTSTSTVYMELSSLRSEDTAVYYCARAPRYRGTMDVWGQGTTVTVSS
VL: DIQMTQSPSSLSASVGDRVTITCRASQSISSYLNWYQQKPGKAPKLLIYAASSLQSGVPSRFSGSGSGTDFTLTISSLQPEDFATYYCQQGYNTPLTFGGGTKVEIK
notes: IgG; also called BIB-12-914
B2: BIIB-12-915 (antibody, V domains shown)
VH: QLQLQESGPGLVKPSETLSLTCTVSGGSISSSRYYWGWIRQPPGKGLEWIGSIYYSGSTYYNPSLKSRVTISVDTSKNQFSLKLSSVTAADTAVYYCARVGGGYANPWGQGTLVTVSS
VL: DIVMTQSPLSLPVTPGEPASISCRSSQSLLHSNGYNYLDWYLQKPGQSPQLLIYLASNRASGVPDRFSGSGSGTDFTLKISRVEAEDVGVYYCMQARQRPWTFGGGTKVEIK
notes: IgG
B3: BIIB-12-916 (antibody, V domains shown)
VH: QVQLVQSGAEVKKPGASVKVSCKASGYTFTSYYMHWVRQAPGQGLEWMGIINPSGGSTSYAQKFQGRVTMTRDTSTSTVYMELSSLRSEDTAVYYCARGGRQKATRRVDVWGQGTVVTVSS
VL: DIQMTQSPSSLSASVGDRVTITCRASQSISSYLNWYQQKPGKAPKLLIYAASSLQSGVPSRFSGSGSGTDFTLTISSLQPEDFATYYCQQLAITPFTFGGGTKVEIK
notes: IgG
B4: BIIB-12-918 (antibody, V domains shown)
VH: QVQLVESGGGVVQPGRSLRLSCAASGFTFSSYGMHWVRQAPGKGLEWVAVISYDGSNKYYADSVKGRFTISRDNSKNTLYLQMNSLRAEDTAVYYCAKSLGGRSFDIWGQGTMVTVSS
VL: DIQMTQSPSSLSASVGDRVTITCRASQSISRYLNWYQQKPGKAPKLLIYAASSLQSGVPSRFSGSGSGTDFTLTISSLQPEDFATYYCQQIFSLPITFGGGTKVEIK
notes: IgG
B5: BIIB-12-919 (antibody, V domains shown)
VH: QVQLVQSGAEVKKPGASVKVSCKASGYTFTSYYMHWVRQAPGQGLEWMGVINPSGGSTSYAQKFQGRVTMTRDTSTSTVYMELSSLRSEDTAVYYCARGANIAVGRRYADYWGQGTLVTVSS
VL: DIQMTQSPSTLSASVGDRVTITCRASQSISSWLAWYQQKPGKAPKLLIYKASSLESGVPSRFSGSGSGTEFTLTISSLQPDDFATYYCQQVSSYPTFGGGTKVEIK
notes: IgG
B6: BIIB-12-920 (antibody, V domains shown)
VH: QVQLVQSGAEVKKPGASVKVSCKASGYTFTSYGISWVRQAPGQGLEWMGWISPYNGNTNYAQKLQGRVTMTTDTSTSTAYMELRSLRSDDTAVYYCARGSGHTTMFWGQGTLVTVSS
VL: EIVMTQSPATLSVSPGERATLSCRASQSVSSNLAWYQQKPGQAPRLLIYSASTRATGIPARFSGSGSGTEFTLTISSLQSEDFAVYYCQQANAYPPTFGGGTKVEI
notes: IgG
B7: BIIB-12-921 (antibody, V domains shown)
VH: QVQLVESGGGVVQPGRSLRLSCAASGFTFSSYGMHWVRQAPGKGLEWVAVISYDGSNKYYADSVKGRFTISRDNSKNTLYLQMNSLRAEDTAVYYCAKVGDRGTRAFDPWGQGTLVTVSS
VL: DIQMTQSPSSVSASVGDRVTITCRASQGISRWLAWYQQKPGKAPKLLIYAASSLQSGVPSRFSGSGSGTDFTLTISSLQPEDFATYYCQQGNVFPLTFGGGTKVEIK
notes: IgG
B8: BIIB-12-922 (antibody, V domains shown)
VH: QVQLVQSGAEVKKPGASVKVSCKASGYTFTSYYMHWVRQAPGQGLEWMGIINPSGGSTSYAQKFQGRVTMTRDTSTSTVYMELSSLRSEDTAVYYCARRGRIAGMWGQGTTVTVSS
VL: not shown
notes: IgG
B9: BIIB-12-923 (antibody, V domains shown)
VH: QVQLVQSGAEVKKPGASVKVSCKASGYTFTSYYMHWVRQAPGQGLEWMGIINPSGGSTSYAQKFQGRVTMTRDTSTSTVYMELSSLRSEDTAVYYCARGAGYLQRAFDIWGQGTMVTVSS
VL: DIQMTQSPSTLSASVGDRVTITCRASQSISSWLAWYQQKPGKAPKLLIYKASSLESGVPSRFSGSGSGTEFTLTISSLQPDDFATYYCQQFKSLSFTFGGGTKVEIK
notes: IgG
B10: BIIB-12-924 (antibody, V domains shown)
VH: QVQLVESGGGVVQPGRSLRLSCAASGFTFSSYGMHWVRQAPGKGLEWVAVISYDGSNKYYADSVKGRFTISRDNSKNTLYLQMNSLRAEDTAVYYCAKGKSSERGLNPWGQGTLVTVSS
VL: DIQMTQSPSSVSASVGDRVTITCRASQGISSWLAWYQQKPGKAPKLLIYAASSLQSGVPSRFSGSGSGTDFTLTISSLQPEDFATYYCQQGNSFPLTFGGGTKVEIK
notes: IgG
B11: BIIB-12-1309 (antibody, V domains shown)
VH: QVQLVESGGGVVQPGRSLRLSCAASGFTFSSYGMHWVRQAPGKGLEWVAVISYDGSNKYYADSVKGRFTISRDNSKNTLYLQMNSLRAEDTAVYYCARGRYTSRYFQHWGQGTLVTVSS
VL: DIQMTQSPSSVSASVGDRVTITCRASQGISSWLAWYQQKPGKAPKLLIYAASSLQSGVPSRFSGSGSGTDFTLTISSLQPEDFATYYCQQANSLPITFGGGTKVEIK
notes: IgG
B12: BIIB-12-926 (antibody, V domains shown)
VH: QVQLVQSGAEVKKPGASVKVSCKASGYTFTSYYMHWVRQAPGQGLEWMGIINPSGGSTSYAQKFQGRVTMTRDTSTSTVYMELSSLRSEDTAVYYCARDGRMARGASPDYWGQGTLVTVSS
VL: EIVMTQSPATLSVSPGERATLSCRASQSVSSNLAWYQQKPGQAPRLLIYGASTRATGIPARFSGSGSGTEFTLTISSLQSEDFAVYYCQQHSFWPPTFGGGTKVEIK
notes: IgG
B13: BIIB-12-927 (antibody, V domains shown)
VH: QVQLVQSGAEVKKPGASVKVSCKASGYTFTSYYMSWVRQAPGQGLEWMGIINPSGGSTSYAQKFQGRVTMTRDTSTSTVYMELSSLRSEDTAVYYCARDSGRKRYYYMDVWGKGTTVTVSS
VL: EIVMTQSPATLSVSPGERATLSCRASQSVSSNLAWYQQKPGQAPRLLIYGASTRATGIPARFSGSGSGTEFTLTISSLQSEDFAVYYCQQFNLWPFTFGGGTKVEIK
notes: IgG
B14: BIIB-12-929 (antibody, V domains shown)
VH: QVQLVQSGAEVKKPGASVKVSCKASGYTFTSYYMHWVRQAPGQGLEWMGIINPSGGSTSYAQKFQGRVTMTRDTSTSTVYMELSSLRSEDTAVYYCARDQGYSRSFDIWGQGTMVTVSS
VL: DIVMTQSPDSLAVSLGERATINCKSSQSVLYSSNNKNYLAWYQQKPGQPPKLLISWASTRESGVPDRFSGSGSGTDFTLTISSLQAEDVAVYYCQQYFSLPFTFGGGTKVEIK
notes: IgG
B15: BIIB-12-930 (antibody, V domains shown)
VH: QVQLVQSGAEVKKPGASVKVSCKASGYTFTSYYMHWVRQAPGQGLEWMGIINPSGGSTSYAQKFQGRVTMTRDTSTSTVYMELSSLRSEDTAVYYCARVRQKATLLFQHWGQGTLVTVSS
VL: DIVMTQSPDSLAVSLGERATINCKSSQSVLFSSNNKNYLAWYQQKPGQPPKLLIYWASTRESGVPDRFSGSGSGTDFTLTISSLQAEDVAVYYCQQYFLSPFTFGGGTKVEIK
notes: IgG
B16: BIIB-12-931 (antibody, V domains shown)
VH: QVQLVQSGAEVKKPGASVKVSCKASGYTFTSYYMSWVRQAPGQGLEWMGIINPSGGSTSYAQKFQGRVTMTRDTSTSTVYMELSSLRSEDTAVYYCARDPVQEYGPYYYYMDVWGKGTTVTVSS
VL: EIVMTQSPATLSVSPGERATLSCRASQSVSSNLAWYQQKPGQAPRLLIYGASTRATGIPARFSGSGSGTEFTLTISSLQSEDFAVYYCQQAAYWPWTFGGGTKVEIK
notes: IgG
B17: BIIB-12-932 (antibody, V domains shown)
VH: QVQLVESGGGVVQPGRSLRLSCAASGFTFSSYGMHWVRQAPGKGLEWVAVISYDGSNKYYADSVKGRFTISRDNSKNTLYLQMNSLRAEDTAVYYCARLGYRGASAFDIWGQGTMVTVSS
VL: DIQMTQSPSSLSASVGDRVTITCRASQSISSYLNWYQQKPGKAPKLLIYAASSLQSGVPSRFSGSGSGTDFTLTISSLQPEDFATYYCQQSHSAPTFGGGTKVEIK
notes: IgG
B18: BIIB-12-933 (antibody, V domains shown)
VH: QVQLVESGGGVVQPGRSLRLSCAASGFTFSSYGMHWVRQAPGKGLEWVAVISYDGSNKYYADSVKGRFTISRDNSKNTLYLQMNSLRAEDTAVYYCARLPRFTGTAYWGQGTLVTVSS
VL: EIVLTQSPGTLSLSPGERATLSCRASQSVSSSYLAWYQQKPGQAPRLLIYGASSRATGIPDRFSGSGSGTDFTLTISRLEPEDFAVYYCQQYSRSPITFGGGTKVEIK
notes: IgG
B19: BIIB-12-934 (antibody, V domains shown)
VH: QVQLVESGGGVVQPGRSLRLSCAASGFTFSSYGMHWVRQAPGKGLEWVAVISYDGSNKYYADSVKGRFTISRDNSKNTLYLQMNSLRAEDTAVYYCARESGGHSYGMDVWGQGTTVTVSS
VL: EIVLTQSPATLSVSPGERATLSCRASQSVSSNLAWYQQKPGQAPRLLIYGASTRATGIPARFSGSGSGTEFTLTISSLQSEDFAVYYCQQFNDHPITFGGGTKVEI
notes: IgG
B20: BIIB-12-935 (antibody, V domains shown)
VH: QVQLVESGGGVVQPGRSLRLSCAASGFTFSSYGMHWVRQAPGKGLEWVAVISYDGSNKYYADSVKGRFTISRDNSKNTLYLQMNSLRAEDTAVYYCARELEYGHYGMDVWGQGTTVTVSS
VL: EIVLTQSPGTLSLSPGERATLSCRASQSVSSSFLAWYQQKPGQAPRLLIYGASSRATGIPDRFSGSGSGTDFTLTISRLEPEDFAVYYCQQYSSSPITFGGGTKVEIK
notes: IgG
B21: BIIB-12-936 (antibody, V domains shown)
VH: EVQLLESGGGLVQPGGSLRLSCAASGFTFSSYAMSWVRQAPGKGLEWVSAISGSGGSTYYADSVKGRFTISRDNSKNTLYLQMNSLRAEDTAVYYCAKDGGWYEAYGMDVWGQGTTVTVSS
VL: EIVMTQSPATLSVSPGERATLSCRASQSVSSNLAWYQQKPGQAPRLLIYGASTRATGIPARFSGSGSGTEFTLTISSLQSEDFAVYYCQQSHNLPPTFGGGTKVEIK
notes: IgG
B22: BIIB-12-937 (antibody, V domains shown)
VH: QVQLVQSGAEVKKPGASVKVSCKASGYTFTSYYMHWVRQAPGQGLEWMGIINPSGGSTSYAQKFQGRVTMTRDTSTSTVYMELSSLRSEDTAVYYCARPTRMLRSYGMDVWGQGTTVTVSS
VL: not shown
notes: IgG
B23: BIIB-12-1288 (antibody, V domains shown)
VH: QVQLVQSGAEVKKPGASVKVSCKASGYTFTSYYMHWVRQAPGQGLEWMGIINPSGGSTSYAQKFQGRVTMTRDTSTSTVYMELSSLRSEDTAVYYCARGGANDYGSSSRWWYFDLWGRGTLVTVSS
VL: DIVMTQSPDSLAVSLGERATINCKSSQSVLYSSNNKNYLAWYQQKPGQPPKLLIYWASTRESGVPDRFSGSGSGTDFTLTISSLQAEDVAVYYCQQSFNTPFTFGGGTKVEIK
notes: IgG
B24: BIIB-12-1289 (antibody, V domains shown)
VH: QVQLVQSGAEVKKPGASVKVSCKASGYTFTSYYMHWVRQAPGQGLEWMGIINPGGGSTSYAQKFQGRVTMTRDTSTSTVYMELSSLRSEDTAVYYCARGPPRTYATGSHNWFDPWGQGTLVTVSS
VL: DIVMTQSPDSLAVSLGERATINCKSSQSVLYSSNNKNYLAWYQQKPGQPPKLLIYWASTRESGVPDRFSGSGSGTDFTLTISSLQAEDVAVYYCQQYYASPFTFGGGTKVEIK
notes: IgG
B25: BIIB-12-1291 (antibody, V domains shown)
VH: QVQLVQSGAEVKKPGASVKVSCKASGYTFTSYYMHWVRQAPGQGLEWMGIINPSGGSTSYAQKFQGRVTMTRDTSTSTVYMELSSLRSEDTAVYYCARSRRMWVGYFDLWGRGTLVTVSS
VL: EIVLTQSPATLSLSPGERATLSCRASQSVSSYLAWYQQKPGQAPRLLIYDASNRATGIPARFSGSGSGTDFTLTISSLEPEDFAVYYCQQRLNLPLTFGGGTKVEIK
notes: IgG
B26: BIIB-12-1292 (antibody, V domains shown)
VH: QVQLVQSGAEVKKPGASVKVSCKASGYTFTSYYIHWVRQAPGQGLEWMGIINPSGGSTSYAQKFQGRVTMTRDTSTSTVYMELSSLRSEDTAVYYCARDPGRRQSSGFDYWGQGTLVTVSS
VL: EIVMTQSPATLSLSPGERATLSCRASQSVSSYLAWYQQKPGQAPRLLIYDSSNRATGIPARFSGSGSGTDFTLTISSLEPEDFAVYYCQQRLNFPFTFGGGTKVEIK
notes: IgG

biological target: T1, non-activatable Factor X (FXn) (Homo sapiens (Human), UniProt P00742 41-488, single biotin on the C-terminal BioTag); assay: BLI; class meaning: paragraph 285
T1 construct: also called BIIB-FX-015

Binding result, binds:
B1
B2
B3
B4
B5
B6
B7
B8
B9
B10
B11
B12
B13
B14
B15
B16
B17
B18
B19
B20
B21
B22
B23
B24
B25
B26
